US20220064286A1 (Genentech, published 2022)
Values belong to the binder of their own block, whether it stands above or below them.

Assays:
[1] = target: T1, mu TIGIT (target named for 10A7 in the heads of Tables 6 and 7) (mu (mouse), UniProt P86176 29-249, limits assumed); assay: FACS, PVR-Fc on CHO-TIGIT cells; competitor PVR-Fc
T1 construct: Only the column head says mu TIGIT; the text describes no mouse TIGIT cells
T1 sequence (looked up): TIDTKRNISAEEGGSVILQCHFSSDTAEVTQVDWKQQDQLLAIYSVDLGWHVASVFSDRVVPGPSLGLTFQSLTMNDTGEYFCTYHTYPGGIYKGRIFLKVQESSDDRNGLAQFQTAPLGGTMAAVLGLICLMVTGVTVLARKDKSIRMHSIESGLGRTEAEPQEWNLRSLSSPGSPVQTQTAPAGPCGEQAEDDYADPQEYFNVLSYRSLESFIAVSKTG
Experimental: These studies were further validated in CHO-TIGIT PVR blocking experiments in which TIGIT-expressing CHO cells were incubated with labeled PVR-Fc fusion protein in the presence of anti-TIGIT antibody or an human IgG1 control (FIG. 4A).

[2] = target: T1, mu TIGIT (target named for 10A7 in the …); assay: TR-FRET, TIGIT with ST-CD226 on CHO cells; competitor CD226
[3] = target: T1, mu TIGIT (target named for 10A7 in the …); assay: FACS, CHO cells expressing TIGIT
human TIGIT protein = target: T2, human TIGIT protein (human, UniProt Q495A1 22-141, limits assumed); assay: SPR, bivalent affinity
T2 construct: Recombinant protein (Genentech) used in ELISA screening and as SPR analyte; also called TIGIT antigen
T2 sequence: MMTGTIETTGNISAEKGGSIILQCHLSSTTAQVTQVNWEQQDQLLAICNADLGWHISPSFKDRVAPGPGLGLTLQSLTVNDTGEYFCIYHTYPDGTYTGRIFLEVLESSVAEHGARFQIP

[4] = target: cynomolgus monkey (cyno) TIGIT protein (cynomolgus monkey, UniProt A0A7N9I9V4 89-209); assay: SPR, bivalent affinity
[5] = target: T3, cynomolgus TIGIT-AviFlag-biotin (cynomolgus monkey, UniProt A0A7N9I9V4 89-209, biotin); assay: Block ELISA Cyno PVR-Fc:Bio-TIGIT-AviFlag (blocked ligand cyno PVR-Fc)
T3 construct: also called cyno TIGIT-AviFlag-biotin
Experimental: To test for the ability of the clones to block the TIGIT-PVR interaction, a blocking ELISA assay was used. Briefly, recombinant human PVR-Fc fusion protein, cynomolgus monkey PVR-Fc fusion protein, or mouse PVR-Fc fusion protein was coated at 4 μg/ml at 25 μl/well in phosphate-buffered saline (PBS, pH 7.0) onto 384-well Maxisorp microtiter plates (NUNC, Denmark) and incubated overnight at 4° C. The coating solution was then discarded and the plate was blocked using 0.5% bovine serum albumin (BSA) in PBS at 80 μl/well and incubated with gentle agitation for 1 hour. Titration curves of anti-TIGIT and Fab isotype control antibodies were diluted in assay buffer (PBS, 0.5% BSA, 0.05% Tween 20) using 12 serial 2.5-fold dilutions (40000-1.7 ng/mL). […] The plate was then washed 6× with wash buffer and bound human TIGIT-AviFlag-biotin, cyno TIGIT-AviFlag-biotin, or mouse TIGIT-His was detected by adding 25 μl/well of horseradish peroxidase-conjugated streptavidin (1:10000, Amersham, UK) or horseradish peroxidase-conjugated mouse anti-His (1:2500, Qiagen, Germany) diluted in assay buffer. […] Absorbance was read at 450 nm on a […] ASCENT® microtiter plate reader (Thermo Labsystems, Helsinki, Finland). Fit curves were plotted from the resulting optical density values from the ELISA plates and IC50s were calculated using Genedata Screener software (Genedata, Switzerland).

T3 sequence (A0A7N9I9V4 entry or part of it): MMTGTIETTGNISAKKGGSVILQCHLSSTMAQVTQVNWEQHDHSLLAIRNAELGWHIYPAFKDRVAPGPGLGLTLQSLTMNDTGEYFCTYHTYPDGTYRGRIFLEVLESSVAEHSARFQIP
Chain of cynomolgus monkey (cyno) TIGIT protein (A0A7N9I9V4 entry or part of it): as above

IC50 [1]: 70 pM
IC50 [2]: 17600 pM
EC50 [3]: 540 pM
B1: 10A7 (antibody, V domains shown)
VH: EVQLVESGGGLTQPGKSLKLSCEASGFTFSSFTMHWVRQSPGKGLEWVAFIRSGSGIVFYADAVRGRFTISRDNAKNLLFLQMNDLKSEDTAMYYCARRPLGHNTFDSWGQGTLVTVSS
VL: DIVMTQSPSSLAVSPGEKVTMTCKSSQSLYYSGVKENLLAWYQQKPGQSPKLLIYYASIRFTGVPDRFTGSGSGTDYTLTITSVQAEDMGQYFCQQGINNPLTFGDGTKLEIKR

Kd (human TIGIT protein): ≤ 19 pM
Kd [4]: 360 pM
B2: 4.1D3 (antibody, V domains shown)
VH: QVQLQQSGPGLVKPSQTLSLTCAISGDSVSSNSAAWNWIRQSPSRGLEWLGKTYYRFKWYSDYAVSVKGRITINPDTSKNQFSLQLNSVTPEDTAVFYCTRESTTYDLLAGPFDYWGQGTLVTVSS
VL: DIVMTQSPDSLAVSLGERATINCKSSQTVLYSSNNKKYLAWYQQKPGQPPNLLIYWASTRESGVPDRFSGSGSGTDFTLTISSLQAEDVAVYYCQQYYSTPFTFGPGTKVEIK
notes: OMT rat-derived human antibody; also called 4.1D3.Q1

IC50 [5]: 2600 pM
B3: 4.1D3.Q1E (antibody, V domains shown)
VH: EVQLQQSGPGLVKPSQTLSLTCAISGDSVSSNSAAWNWIRQSPSRGLEWLGKTYYRFKWYSDYAVSVKGRITINPDTSKNQFSLQLNSVTPEDTAVFYCTRESTTYDLLAGPFDYWGQGTLVTVSS
VL: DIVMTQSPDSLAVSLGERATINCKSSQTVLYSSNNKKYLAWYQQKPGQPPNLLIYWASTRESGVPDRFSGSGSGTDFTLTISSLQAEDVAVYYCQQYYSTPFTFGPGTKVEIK
